Data published in PMC10837205 (Cell Research, 2024).

Target: T1, biotinylated soluble human LDLR (sohLDLR) (human, UniProt P01130-1 22-788, biotin (biotinylated; site not stated))
T1 construct: also called biotinylated LDLR; soluble biotinylated LDLR; source: bought: SinoBiological #10231-H08H-B
Experiment: BLI
Conditions: both partners purified

T1 sequence (P01130 22-788): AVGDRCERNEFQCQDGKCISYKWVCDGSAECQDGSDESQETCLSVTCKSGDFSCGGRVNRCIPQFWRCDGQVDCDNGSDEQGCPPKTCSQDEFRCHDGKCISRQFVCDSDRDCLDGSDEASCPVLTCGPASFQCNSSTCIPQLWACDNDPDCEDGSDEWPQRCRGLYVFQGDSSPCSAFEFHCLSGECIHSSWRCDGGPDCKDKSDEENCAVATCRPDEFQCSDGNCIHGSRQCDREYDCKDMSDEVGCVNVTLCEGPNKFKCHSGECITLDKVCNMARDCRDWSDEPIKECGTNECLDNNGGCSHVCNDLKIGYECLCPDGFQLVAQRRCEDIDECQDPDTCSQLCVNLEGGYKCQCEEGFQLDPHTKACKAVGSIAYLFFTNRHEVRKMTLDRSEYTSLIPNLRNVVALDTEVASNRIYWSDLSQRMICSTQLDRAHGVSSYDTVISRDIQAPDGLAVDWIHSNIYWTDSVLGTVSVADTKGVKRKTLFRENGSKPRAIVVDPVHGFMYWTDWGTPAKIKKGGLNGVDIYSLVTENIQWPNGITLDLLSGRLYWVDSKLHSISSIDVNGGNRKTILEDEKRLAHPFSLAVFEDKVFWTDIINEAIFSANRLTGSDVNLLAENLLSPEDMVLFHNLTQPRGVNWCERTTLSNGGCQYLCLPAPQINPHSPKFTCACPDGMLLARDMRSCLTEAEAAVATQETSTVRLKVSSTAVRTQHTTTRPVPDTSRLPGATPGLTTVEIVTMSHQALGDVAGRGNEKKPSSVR

B1: VSV G protein (Indiana strain) (natural protein)
chain: KFTIVFPHNQKGNWKNVPSNYHYCPSSSDLNWHNDLIGTAIQVKMPKSHKAIQADGWMCHASKWVTTCDFRWYGPKYITQSIRSFTPSVEQCKESIEQTKQGTWLNPGFPPQSCGYATVTDAEAVIVQVTPHHVLVDEYTGEWVDSQFINGKCSNYICPTVHNSTTWHSDYKVKGLCDSNLISMDITFFSEDGELSSLGKEGTGFRSNYFAYETGGKACKMQYCKHWGVRLPSGVWFEMADKDLFAAARFPECPEGSSISAPSQTSVDVSLIQDVERILDYSLCQETWSKIRAGLPISPVDLSYLAPKNPGTGPAFTIINGTLKYFETRYIRVDIAAPILSRMVGMISGTTTERELWDDWAPYEDVEIGPNGVLRTSSGYKFPLYMIGHGMLDSDLHLSSKAQVFEHPHIQDAASQLPDDESLFFGDTGLSKNPIELVEGWFSSWKSSIASFFFIIGLIIGLFLVLRVGIHLCIKLKHTKKRQIYTDIEMNRLGK
- Kd: 0.0543 µM
